The record followed here is FireProtDB (doi:10.1016/s0014-5793(99)00158-1).

The term Tm denotes the temperature at the midpoint of the melting transition.

For the data set the following is noted: pH 6.2, Thermal, DSC, Na-acetate 10 mM, NaCl 0.05 M, reversible: yes, whole UniProt chain shown.

B1: Ribonuclease wild type, P00649 (protein)
chain: MKKISSVFTMFALIAAILFSGFIPQQAYAETPLTQTATNETATIQLTSDVHTLAVINTFDGVADYLIRYKRLPDNYITKSQASALGWVASKGNLAEVAPGKSIGGDVFSNREGRLPSASGRTWREADINYVSGFRNADRLVYSSDWLIYKTTDHYATFTRIR
On to B1, for which, for the setting “Bacillus intermedius”, the Tm turned out to be 56.5 °C, the “unfolding enthalpy (calorimetric)” value is 124 kcal/mol and the “unfolding enthalpy (van 't Hoff)” value worked out at 126 kcal/mol.

B2: Ribonuclease wild type, P00648 (protein)
chain: MMKMEGIALKKRLSWISVCLLVLVSAAGMLFSTAAKTETSSHKAHTEAQVINTFDGVADYLQTYHKLPDNYITKSEAQALGWVASKGNLADVAPGKSIGGDIFSNREGKLPGKSGRTWREADINYTSGFRNSDRILYSSDWLIYKTTDHYQTFTKIR
As for B2, where the note is “Bacillus amyloliquefaciens”, the Tm was 54.5 °C, the “unfolding enthalpy (calorimetric)” value turned out to be 129 kcal/mol and the “unfolding enthalpy (van 't Hoff)” value was 130 kcal/mol.

B3: Barstar wild type, P11540 (protein)
chain: MKKAVINGEQIRSISDLHQTLKKELALPEYYGENLDALWDCLTGWVEYPLVLEWRQFEQSKQLTENGAESVLQVFREAKAEGCDITIILS
B3: where the note is “Bacillus amyloliquefaciens”, the Tm was 73.3 °C, the “unfolding enthalpy (calorimetric)” value is 53 kcal/mol and the “unfolding enthalpy (van 't Hoff)” value was found to be 76 kcal/mol.
